Test results as given in patent publication US9487562B2, “Stabilized polypeptides as regulators of RAB GTPase function” (President and Fellows of Harvard College, priority 2011, dated 2016).
Entries after “also recorded” stand apart in the source; their conditions may differ. Bridge positions count the residues as written; N and C are the ends. Square brackets hold non-standard residues; d marks the D form. Ends that are not written are not given here. S5 = C=CCCC[C@](C)(N)C(=O)O

T1: RAB11 (Homo sapiens, UniProt P62491)
T1 construct: RAB11 (residues 1-175) was expressed with an N-terminal GST-tag with an internal thrombin cleavage site; GST (thrombin cleavage site between tag and RAB11) (N); made in house; host or cells: Escherichia coli BL21(DE3) pLysS
T1 sequence (P62491 1-175): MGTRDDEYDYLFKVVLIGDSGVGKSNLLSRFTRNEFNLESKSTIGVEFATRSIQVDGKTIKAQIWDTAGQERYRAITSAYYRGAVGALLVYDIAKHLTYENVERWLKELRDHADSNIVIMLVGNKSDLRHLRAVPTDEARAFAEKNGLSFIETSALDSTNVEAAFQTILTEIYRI

T2: RAB25 (Homo sapiens, UniProt P57735)
T2 construct: RAB25 (residues E7-Q180) was expressed with an N-terminal GST- and hexahistidine tag; made in house; host or cells: Escherichia coli BL21(DE3) pLysS
T2 sequence (P57735 7-180): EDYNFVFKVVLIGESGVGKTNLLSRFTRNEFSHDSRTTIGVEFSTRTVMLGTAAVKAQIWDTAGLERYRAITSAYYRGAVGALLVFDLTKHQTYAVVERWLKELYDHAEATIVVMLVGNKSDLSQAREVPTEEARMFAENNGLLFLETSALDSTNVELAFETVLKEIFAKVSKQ

T3: RAB11 (Homo sapiens, UniProt P62491)
T3 construct: incubated in pre-cleared lysate from OVCAR3 cells, which express RAB11 and RAB25; endogenous in cells; host or cells: OVCAR3
T3 sequence (P62491 1-216): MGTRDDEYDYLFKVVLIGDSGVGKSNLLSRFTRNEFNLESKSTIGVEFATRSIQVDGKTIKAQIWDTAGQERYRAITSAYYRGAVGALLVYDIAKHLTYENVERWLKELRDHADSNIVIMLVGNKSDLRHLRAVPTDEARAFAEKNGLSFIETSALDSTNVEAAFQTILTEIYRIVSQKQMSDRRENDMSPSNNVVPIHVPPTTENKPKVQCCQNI

T4: RAB25 (Homo sapiens, UniProt P57735)
T4 construct: incubated in pre-cleared lysate from OVCAR3 cells, which express RAB11 and RAB25; endogenous in cells; host or cells: OVCAR3
T4 sequence (P57735 1-213): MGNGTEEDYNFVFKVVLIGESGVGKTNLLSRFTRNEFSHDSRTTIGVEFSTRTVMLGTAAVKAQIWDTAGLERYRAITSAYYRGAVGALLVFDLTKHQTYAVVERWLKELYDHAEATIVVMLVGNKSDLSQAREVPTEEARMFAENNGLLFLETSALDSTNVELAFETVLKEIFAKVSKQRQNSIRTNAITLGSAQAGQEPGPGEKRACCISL

T5: GST-H6-RAB25 (Homo sapiens, UniProt P57735)
T5 construct: RAB25 (residues E7-Q180) was expressed with an N-terminal GST- and hexahistidine tag; made in house; host or cells: Escherichia coli BL21(DE3) pLysS
T5 sequence (P57735 7-180): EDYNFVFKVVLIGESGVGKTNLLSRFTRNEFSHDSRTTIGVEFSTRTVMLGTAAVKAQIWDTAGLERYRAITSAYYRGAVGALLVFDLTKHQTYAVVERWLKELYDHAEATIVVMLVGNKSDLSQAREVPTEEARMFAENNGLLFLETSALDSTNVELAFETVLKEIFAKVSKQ


Experiments:
RAB11 [1] = target: T1, RAB11; assay: Fluorescence polarization binding of FITC-FIP/FITC-RFP peptides to RAB11; conditions: FITC peptide 15 nM, fluorescence polarization
Protocol: Fluorescence polarization (FP) was used to measure FIP peptide binding to RAB11 and RAB25 proteins. […] This indicated specificity in the binding measurement, as this subtle change would be expected to perturb binding.
(§1) RAB11/25 protein binding assays were performed by incubating FITC-FIP or FITC-RFP (stapled FIP derivatives) peptides (15 nM) with three-fold dilutions of recombinantly-expressed, purified RAB11, RAB25 or a various epitope-tagged version of either in protein-binding buffer (25 mM Tris-HCl, pH 8.0, 150 mM NaCl, 1 mM EDTA, 1 mM DTT, 10 mM MgCl2, 10 mM GTP). Dilutions and incubations were made in 384-well, black flat-bottom plates (Corning) to a total volume of 40 μL and equilibrated for 60 minutes. Polarization was measured on a Spectramax-M5 multi-label plate reader with λex=485 nm and λem=525 nm. Polarization was calculated according to the standard equation: P=(V−H)/(V+H), where P=polarization, V=vertical emission intensity and H=horizontal emission intensity. Kd values were determined by fitting data to a variable-slope sigmoidal binding curve using Prizm 4 graphing software.
(§2) RAB11 and RAB25 proteins were expressed and purified in Escherichia coli strain BL21(DE3) pLysS (Stratagene) as epitope-tagged fusion proteins in various vectors (Novagen). RAB25 (residues E7-Q180) was expressed with an N-terminal GST- and hexahistidine tag with internal thrombin and TEV cleavage sites (GST-H6-RAB25) (SEQ ID NO: 86) in a pET41-1 vector (Novagen) or with an N-terminal hexahistidine tag alone with an internal thrombin cleavage site (H6-RAB25) (SEQ ID NO: 86) in a pET28 vector (Novagen). FIP3 protein (residues 649-756) was expressed with an N-terminal GST-tag with an internal TEV cleavage site (GST-FIP3) in a pGEX6p-1 vector (Novagen). RAB11 (residues 1-175) was expressed with an N-terminal GST-tag with an internal thrombin cleavage site in a pGEX5x-1 vector (Novagen). Transformed bacteria was grown at 37° C. until an OD600=0.8 was reached, at which point the culture was induced with 0.5 mM isopropyl β-D-1-thiogalactopyranoside (IPTG). Induced cells were grown at 30° C. for 6 hours, pelleted and lysed in binding buffer (25 mM Tris-HC;, pH 8.0, 150 mM NaCl, 1 mM EDTA, 1 mM DTT, 10 mM MgCl2, 10 mM GTP) supplemented with a complete protease inhibitor tablet (Roche) by sonication on ice. The lysate was centrifuged at 14,000 rpm to clear insoluble matter prior to loading onto Ni-NTA resin (Qiagen) for hexahistdine-tagged constructs or on GST-bind agarose resin (Biorad) for GST-tagged constructs. The protein-bound bead slurry was washed 4× with ˜20 mL of buffer and retained protein was eluted with either 250 mM imidazole or 20 mM glutathione in buffer for H6-(SEQ ID NO: 86) or GST-proteins, respectively. The eluent was concentrated using a 30 kD exclusion filter and purified by size-exclusion chromatography on a Superdex-75 Column (Amersham Pharmacia Biotech). Fractions containing purified protein were pooled, concentrated and dialyzed into binding buffer or other similar buffer for specific biochemical assays.

RAB25 [2] = target: T2, RAB25; assay: Fluorescence polarization binding of FITC-FIP/FITC-RFP peptides to RAB25; conditions: FITC peptide 15 nM
Protocol: as §1, §2

[3] = Circular dichroism spectra / percent helicity; format: physicochemical; conditions: calculated from the absorbance at 222 nm
Protocol: We next investigated the structural stability of the RFPs by obtaining circular dichroism (CD) spectra for each peptide. All measurements were made at 20° C. in water with peptides at 50 μM. […] By comparison, stapled FIP peptides (RFPs) show helical CD spectra indicated by minima at approximately 208 and 222 nm (FIG. 11B).
A circular dichroism spectrometer (Jasco J-710, Japan) was used to determine the α-helical content of all peptides. Peptides were dissolved in water to a final concentration of 50 μM in a quartz cuvette with a path length of 1 cm. Absorbance values were taken at 1 nm intervals between 190 and 260 nm for buffer alone and for peptide solutions. The background (buffer) spectrum was subtracted from experimental spectra, which were subsequently subjected to baseline-normalization and curve-smoothing within the spectrometer software. Percent-helicity was calculated from the absorbance at 222 nm using helical models as previously reported in Chen Y H et al., Biochemistry, 13, 3350-9 (1974).

[4] = Peptide thermal stability by CD at 222 nm; format: physicochemical; conditions: CD at 222 nm over 10-90° C.
Protocol: Peptide thermal stability was measured by scanning the peptide CD at 222 nm over a temperature range (10-90° C.). A sigmoidal unfolding curve was apparent for helices of unmodified FIP peptides (FIP4) with a Tm of ˜34° C. (FIG. 12A).
Peptide thermal stability experiments were performed in a similar manner to circular dichroism experiments in Example 5. Peptide solutions were cooled to 10° C. in a temperature controlled CD-chamber and circular dichroism absorbance at 222 nm was measured at 1 degree intervals while the solution was heated to 90° C. 222 nm CD values were plotted as a function of temperature and fitted to a sigmoidal denaturation curve, with the half-maximal temperature representing the Tm.

U2OS osteosarcoma cells = assay: Quantitative epifluorescence microscopy of cell penetration; format: cell-based; conditions: 5 μM FITC-RFPs for 12 hours, DMEM 10% FBS
Protocol: U2OS osteosarcoma cells were treated with 5 μM FITC-RFPs for 12 hours in Dulbecco's Modified Eagle Medium (DMEM) (Gibco®) containing 10% fetal bovine serum (FBS). Cells were washed, then stained with Hoescht nuclear dye. Automated fluorescence microscopy was performed at 20× on an IX5000 epifluorescence microscope. Nuclear staining is shown in the top panel and FITC is show in the bottom panel (FIGS. 16 and 17B). Quantification was performed using MetaXpress software (FIG. 18A).

RAB25 [5] = assay: Fluorescence polarization binding of FITC-FIP/FITC-RFP peptides to RAB25
Protocol: as §1, §2

RAB11 [6] = target: T3, RAB11; assay: Biotin-RFP pulldown from OVCAR3 lysate, Western blot for RAB11; format: binding; conditions: relative to mock or negative control RFP31
Protocol: (§3) Optimized RFP peptides were synthesized with an amino-terminal diethyleneglycol-biotin moiety. The peptides were immobilized on streptavidin-agarose resin/beads and incubated in pre-cleared lysate from OVCAR3 cells, which express RAB11 and RAB25. The beads were washed, and the protein was eluted and used for Western blot analysis to identify retained RAB11 and RAB25 (FIG. 24). […] The signal is similar to the relative binding affinities and ALPHASCREEN® IC50 observed for RFP peptides.

RAB25 [7] = target: T4, RAB25; assay: Biotin-RFP pulldown from OVCAR3 lysate, Western blot for RAB25; format: binding; conditions: relative to mock or negative control RFP31
Protocol: as §3

[8] = system: AKT phosphorylated at S473 (p473-AKT); assay: AKT phosphorylation at S473 in OVCAR3 cells (Western blot); format: cell-based, Human; parameters: dose or concentration left out as unconfirmed; conditions: OVCAR3 cells treated with RFP26 for 24 hours
Excerpt: AKT, also known as Protein Kinase B (PKB), is a serine/threonine-specific protein kinase that is associated with tumor cell survival, proliferation, and invasiveness. The activation of AKT is also one of the most frequent alterations observed in human cancer and tumor cells, thus deregulation of the AKT plays a pivotal role in tumor biology (Stuenaes et al., Br. J. Pharmacol. (2010) 160(1):116-29). Full AKT activation requires phosphorylation by activating kinases on two residues: threonine 308 (T308) and serine 473 (S473). Hyperactivation of AKT is associated with resistance to apoptosis as well as increased cell proliferation and metabolism. […] To assess the affect of RFP26 on AKT phosphorylation in OVCAR3 cells, OVCAR3 cells were treated with […] RFP26 for 24 hours. The cells were then lysed, and the lysate was used in a Western blot to detect AKT phosphorylated at S473 (p473-AKT) and total AKT (FIG. 25A).

OVCAR3 cells = assay: Transwell migration assay; format: cell-based, Human; conditions: 15 μM for 24 hours, collagen-coated 8-micron transwells
Protocol: OVCAR3 cells were seeded on collagen-coated, 8-micron transwells in DMEM media. Cells were treated with 15 μM RFP26, RFP31 or vehicle for 24 hours during cell migration. The cells in the wells were fixed, and migrating cells were stained and counted (FIGS. 25B and 25C).

GST-H6-RAB25 = target: T5, GST-H6-RAB25; assay: ALPHASCREEN competition assay (biotin-RFP14 / GST-H6-RAB25 complex); format: binding; conditions: competitor added to pre-formed biotin-RFP14/GST-H6-RAB25 complex
Excerpt: A nano-bead based […] assay (ALPHASCREEN®) was used to qualitatively assess protein binding (peptide-RAB or protein-RAB association) and quantitatively assess inhibitor ranking (competition assays). […] FIG. 13B schematizes the ALPHASCREEN® (binding) strategy. If an RFP (or FIP protein/peptide) conjugated to biotin (bound to a donor bead, in this case streptavidin) interacts with RAB conjugated to GST (bound to an acceptor bead, in this case, anti-GST), there is a proximity-dependent transfer of chemical energy, resulting in light production.
For competition assays, complexes consisting of biotin-FIP and GST-RAB proteins or biotin-RFP and GST-RAB peptides with free RFPs, unmodified peptides, and FIP proteins were incubated.
In FIGS. 13 and 14, the binding complex is pre-formed with Biotin-RFP14 and GST-H6-RAB25 (SEQ ID NO: 86). Soluble competitors were then added after an incubation time (30 min) across a dose range. These competitors are FIP3 (expressed protein), and Trp-labeled derivatives of RFP14, RFP16 and RFP17. After another incubation of 30 min the streptavidin donor beads and Ni-NTA acceptor beads are added and the luminescent signal is measured approximately 30 min later (total of ˜1.5 hr incubation time).

binding affinity to RAB11 (RAB11 [1])	relative affinity RAB11 versus RAB25 (selectivity) (RAB25 [5])	binding to and retention of RAB11 (RAB11 [6])	binding to and retention of RAB25 (RAB25 [7])	competition for RAB25 binding (IC50) (GST-H6-RAB25)	Molecule	binding affinity to RAB25 (RAB25 [2])	theoretical percent helicity [3]	Tm [4]	cell penetration (U2OS osteosarcoma cells)	AKT phosphorylation at S473 [8]	OVCAR3 cellular migration (OVCAR3 cells)
highest binding affinity	–	–	–	–	RFP14: stapled FIP peptide, SEQ ID NO: 75 (RQVRELENYIDRLLV[S5]VNE[S5]TPNILRIPR; staple 16-20; not fully specified (C-terminus))	highest binding affinity	highest helical content	64 °C	lowest cell penetration	–	–
high affinity	some selectivity for RAB25	significant binding to and retention	significant binding to and retention	–	RFP26: stapled FIP peptide containing an E-R mutation to increase overall charge, SEQ ID NO: 83 (RINFRLQN[S5]IDR[S5]IVRINETNPSILRVK; staple 9-13; not fully specified (C-terminus))	retained binding affinity; also recorded: high affinity	–	–	–	decreased AKT phosphorylation at S473	inhibited OVCAR3 cellular migration
–	–	–	–	significantly higher IC50	FIP3 protein: expressed FIP3 protein (652-756), soluble competitor in … (protein, UniProt O75154 652-756, looked up, fragment, GST tag) QEYHSRARESELEQEVRRLKQDNRNLKEQNEELNGQIITLSIQGAKSLFSTAFSESLAAEISSVSRDELMEAIQKQEEINFRLQDYIDRIIVAIMETNPSILEVK	–	–	–	–	–	–
